{"source": "patent US8394929B2", "about": "“Nogo receptor-mediated blockade of axonal growth” (Yale University, priority 2000, dated 2013)", "key": {"mouse NgR": {"biological_target": "T1, mouse NgR (Mus musculus, UniProt Q99PI8)", "T1 construct": "expressed in transfected cells; host or cells: COS-7", "T1 sequence (Q99PI8 27-473)": "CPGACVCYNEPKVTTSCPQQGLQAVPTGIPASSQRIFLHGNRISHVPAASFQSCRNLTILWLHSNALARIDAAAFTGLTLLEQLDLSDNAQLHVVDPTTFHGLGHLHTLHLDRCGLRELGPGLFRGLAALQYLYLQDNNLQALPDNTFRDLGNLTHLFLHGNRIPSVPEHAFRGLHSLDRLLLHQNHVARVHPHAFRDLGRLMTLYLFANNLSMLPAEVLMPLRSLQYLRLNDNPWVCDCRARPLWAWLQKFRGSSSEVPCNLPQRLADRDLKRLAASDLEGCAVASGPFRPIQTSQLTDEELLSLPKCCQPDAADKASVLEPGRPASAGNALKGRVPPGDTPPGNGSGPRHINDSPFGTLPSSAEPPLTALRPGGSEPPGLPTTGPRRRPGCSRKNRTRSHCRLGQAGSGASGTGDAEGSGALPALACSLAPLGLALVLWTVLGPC", "assay": "AP-fusion protein binding to COS-7 cells expressing mouse NgR", "method": "To determine if AP-fused deletion mutants of Nogo-66 bind mouse NgR (“mNgR”), COS-7 cells were transfected with a plasmid encoding the mouse NgR sequence ligated into pcDNA3.1. 48 hours after transfection, cells were washed with HBH (Hanks balanced salt solution containing 20 mM sodium Hepes, pH 7.05, and 1 mg ml^−1 bovine serum albumin) and then incubated with condition medium containing one of the AP-fusion proteins described above for 2 hours at 37° C. Cells were then washed, fixed, and left in HBH at 67° C. for 14-16 h to inactivate endogenous AP. AP-fusion protein binding to NgR expressing COS-7 cells was detected with the substrates NBT and BCIP (FIG. 13b).\nTo determine whether mNgR or mNgR deletion mutants bound to hNogo-A (1055-1120), wtNgR or mNgR deletion mutants were transfected into COS-7 cells. Forty-eight hours after the transfection, the transfected COS-7 cells were washed with hanks balanced salt solution containing 20 mM sodium HEPES, pH 7.05, and 1 mg/ml bovine serum albumin (BSA) [hereinafter “HBH”]. Cells were then incubated for 2 hours at 23° C. with a conditioned medium enriched with purified AP-hNogo-A (1055-1120) diluted in HBH. AP-fusion protein was detected as previously described for AP-Sema3A (Takahashi et al., Nature Neurosci. 1:487-493, 1998)."}, "[1]": {"test_system": "GST-Nogo-induced growth cone collapse", "assay": "Blockade of Nogo-induced growth cone collapse in chick DRG cultures", "format": "cell-based", "conditions": "GST-Nogo / Nogo-66 as collapsing agent", "method": "(§1) For all experiments involving cell culture, the following methods were employed. The culture of embryonic chick E10 and E12 dorsal root ganglion explants and dissociated neurons utilized methods described for E7 dorsal root ganglion cultures (Takahashi et al., (1998) Nature Neurosci. 1, 487-493; Takahashi et al., (1999) Cell 99, 59-69; Goshima et al., (1995) Nature 376, 509-514; Jin & Strittmatter, (1997) J. Neurosci. […]). NGF-differentiated PC12 cells were cultured as described (Strittmatter et al., (1994) J. Neurosci. 14, 2327-2338). Embryonic spinal cord explants (rat E10 or chick E5) were cultured for 7-14 days in the presence of PDGF-AA to induce differentiation of some cells into mature oligodendrocytes (Vartanian et al., (1999) Proc. Natl. Acad. Sci. USA 96, 731-735). The procedure for growth cone collapse assays is identical to that for analysis of Sema3A-induced growth cone collapse (Takahashi et al., (1998) Nature Neurosci. 1, 487-493; Takahashi et al., (1999) Cell 99, 59-69; Goshima et al., (1995) Nature 376, 509-514; Jin & Strittmatter, (1997) J. Neurosci. 17, 6256-6263). The method for analysis of total neurite outgrowth has also been described (Goshima et al., (1995) Nature 376, 509-514; Jin & Strittmatter, (1997) J. Neurosci. 17, 6256-6263; Strittmatter et al., (1994) J. Neurosci. 14, 2327-2338). In outgrowth assays, proteins and peptides were added one hour after plating to minimize any effect on the total number of adherent cells. To test the effect of substrate-bound GST or GST-Nogo, the protein solutions were dried on poly-L-lysine coated glass, washed and then coated with laminin. For E12 cultures, the neuronal identity of cells was verified by staining with anti-neurofilament antibodies (2H3, Develomental Studies Hybridoma Bank) and neurites were traced by observation of rhodamine-phalloidin staining of F-actin in processes.\nIn the growth cone collapse assay, the response to Nogo was measured in the presence of various potential antagonistic peptides. […] This blockade supports the hypothesis that Nogo is a primary inhibitory component of CNS myelin.\nFor further testing, a synthetic peptide containing amino acid residues #1055-1094 of hNgR, acetylated at the […] was used [hereinafter “Peptide 140”]. […] Antagonist of Nogo-66 inhibitory activity may act by competing for, and thereby blocking NgR binding sites. To determine the antagonistic activity of Peptide 140, the above synthetic form of the peptide was added to E12 chick DRG explant cultures approximately 10 min before application of various concentrations of GST-NogoA (residues #1055-1120), TPA or Sema3A. 30 min later, cultures were fixed and growth cone collapse was assessed following staining with rhodamine-phalloidin."}, "[2]": {"test_system": "CNS myelin induced neurite outgrowth inhibition", "assay": "Blockade of CNS myelin induced neurite outgrowth inhibition in chick DRG neurons", "format": "cell-based", "method": "To determine the antagonistic activity of Peptide 140 against CNS myelin, the above synthetic peptide was added approximately 10 min before application of CNS myelin. 30 min later, cultures were fixed and growth cone collapse was assessed following staining with rhodamine-phalloidin. For neurite outgrowth assays, plastic chamber slide were coated with 100 μg ml^−1 poly-L-lysine, washed, and dried. 3 μl drops of PBS containing CNS myelin were spotted and dried. Slides were then rinsed and coated with 10 μg ml fs24^−1 laminin before addition of dissociated E12 chick DRGs. Peptide 140, or the scrambled version of Peptide 140, was added at the time of cell plating. Cultures were grown for 5-7 h after which neurite outgrowth was assessed.\nAlthough the role of the GPI anchor may be to regulate NgR cellular compartmentalization, another possible role for the GPI linkage is to provide a NgR cleavage site. Cleaving NgR could serve to affect hNogo-A (1055-1120) signaling by rendering a neuron insensitive to hNogo-A (1055-1120) and by releasing soluble NgR that could then act on adjacent cells to modulate hNogo-A (1055-1120) signaling. To determine if soluble mNgR modulates hNogo-A (1055-1120)-dependent inhibition, a soluble mNgR was generated by inserting a truncated cDNA encoding mNgR residues 1-348 in frame with a myc-His carboxy tag into pcDNA3.1. The resulting plasmid expressing mNgREcto was transfected into HEK293T cells, and conditioned media containing mNgREcto protein was collected. To test the effect of mNgREcto on Nogo signaling, E13 dissociated DRGs were plated in the presence of hNogo-A (1055-1120) or myelin. The inhibitors were presented in either soluble or substrate-bound forms. For neurite outgrowth assays on hNogo-A (1055-1120) or myelin substrates, Permanox chamber slides were coated with 100μ, fs24 g ml^−1 poly-L-Lysine, washed, and then 3-μl drops of phosphate-buffered saline (hereinafter “PBS”) containing 0, 10, 50, or 150 ng of GST-hNogo-A (1055-1120) or myelin were spotted and dried. GST-hNogo-A (1055-1120) and myelin were prepared as previously described (GrandPre et al., supra; Fournier et al., J. Cell Biol. 149:411-421, 2000). After three PBS washes, slides were coated with 10 μg ml^−1 laminin. Laminin was then aspirated and dissociated E13 chick DRG neurons were added. After 6-8 hr of outgrowth, cultures were fixed and neurite outgrowth lengths were assessed. For blockade experiments with NgREcto, spots were incubated with HEK293T cell conditioned media or NgREcto-transfected-HEK293T cell conditioned media following for 1 hr following the laminin coating step and before the addition of dissociated neurons. […] Thus, soluble fragments of NgR might serve physiologically or pharmacologically to reduce GST-hNogo-A (1055-1120) inhibition of axonal regeneration."}, "[3]": {"test_system": "GST-Nogo-66 inhibition of neurite outgrowth", "assay": "Blockade of Nogo-induced inhibition of neurite outgrowth in chick DRG neurons", "format": "cell-based", "method": "as §1\nPeptide 140 was tested for its ability to neutralize neurite outgrowth inhibition caused by the addition of GST fused to residues #1055-1120 of hNogoA (designated Nogo-66 in FIG. 16e). Plastic chamber slides were coated with 100 μg ml^−1 poly-L-lysine, washed, and dried. 3 μl drops of PBS containing GST-hNogoA(residues #1055-1120) were spotted and dried. Slides were then rinsed and coated with 10 μg ml fs24^−1 laminin before addition of dissociated E12 chick DRGs. Peptide 140 was added at the time of cell plating. Cultures were grown for 5-7 h after which neurite outgrowth was assessed.\nAlthough the role of the GPI anchor may be to regulate NgR cellular compartmentalization, another possible role for the GPI linkage is to provide a NgR cleavage site. Cleaving NgR could serve to affect hNogo-A (1055-1120) signaling by rendering a neuron insensitive to hNogo-A (1055-1120) and by releasing soluble NgR that could then act on adjacent cells to modulate hNogo-A (1055-1120) signaling. To determine if soluble mNgR modulates hNogo-A (1055-1120)-dependent inhibition, a soluble mNgR was generated by inserting a truncated cDNA encoding mNgR residues 1-348 in frame with a myc-His carboxy tag into pcDNA3.1. The resulting plasmid expressing mNgREcto was transfected into HEK293T cells, and conditioned media containing mNgREcto protein was collected. To test the effect of mNgREcto on Nogo signaling, E13 dissociated DRGs were plated in the presence of hNogo-A (1055-1120) or myelin. The inhibitors were presented in either soluble or substrate-bound forms. For neurite outgrowth assays on hNogo-A (1055-1120) or myelin substrates, Permanox chamber slides were coated with 100μ, fs24 g ml^−1 poly-L-Lysine, washed, and then 3-μl drops of phosphate-buffered saline (hereinafter “PBS”) containing 0, 10, 50, or 150 ng of GST-hNogo-A (1055-1120) or myelin were spotted and dried. GST-hNogo-A (1055-1120) and myelin were prepared as previously described (GrandPre et al., supra; Fournier et al., J. Cell Biol. 149:411-421, 2000). After three PBS washes, slides were coated with 10 μg ml^−1 laminin. […]"}}}
{"substance": "1-33: peptides having residues 1-33 of hNogoA (#1055-1120) (RIYKGVIQAIQKSDEGHPFRAYLESEVAISEEL; UniProt Q9NQC3 1055-1087, looked up, fragment) [Peptide 1-33]", "values": [{"measurement": "binding to mNgR, less compared to the strong binders", "setting": "mouse NgR; data not shown", "result": "approximately 50%"}]}
{"substance": "2-40: peptides having residues 2-40 of the hNogoA (#1055-1120) (IYKGVIQAIQKSDEGHPFRAYLESEVAISEELVQKYSNS; UniProt Q9NQC3 1056-1094, looked up, fragment) [Peptide 2-40]", "values": [{"measurement": "binding to NgR expressing COS-7 cells (in words)", "setting": "mouse NgR", "result": "bound mNgR well"}]}
{"substance": "1-34: peptides having residues 1-34 of hNogoA (#1055-1120) (RIYKGVIQAIQKSDEGHPFRAYLESEVAISEELV; UniProt Q9NQC3 1055-1088, looked up, fragment) [Peptide 1-34]", "values": [{"measurement": "binding to NgR expressing COS-7 cells (in words)", "setting": "mouse NgR", "result": "bind strongly and almost equivalently"}]}
{"substance": "21-45: 25 amino acid peptide, residues 21-45 of the extracellular domain of Nogo (RAYLESEVAISEELVQKYSNSALGH) [Peptide 21-45]", "values": [{"measurement": "blockade of Nogo-induced growth cone collapse (in words)", "setting": "[1]", "result": "blocking activity at μM concentrations"}]}
{"substance": "10-40: peptides having residues 10-40 of hNogoA (#1055-1120) (IQKSDEGHPFRAYLESEVAISEELVQKYSNS) [Peptide 10-40]", "values": [{"measurement": "binding to NgR expressing COS-7 cells (in words)", "setting": "mouse NgR", "result": "no binding"}]}
{"substance": "11-35: 25 amino acid peptide, residues 11-35 of the extracellular domain of Nogo (IQKSDEGHPFRAYLESEVAISEELV) [Peptide 11-35]", "values": [{"measurement": "blockade of Nogo-induced growth cone collapse (in words)", "setting": "[1]", "result": "blocking activity at μM concentrations"}]}
{"substance": "1-30: peptides having residues 1-30 of hNogoA (#1055-1120) (RIYKGVIQAIQKSDEGHPFRAYLESEVAIS; UniProt Q9NQC3 1055-1084, looked up, fragment) [Peptide 1-30]", "values": [{"measurement": "binding to NgR expressing COS-7 cells (in words)", "setting": "mouse NgR", "result": "almost no binding"}]}
{"substance": "acetyl-SYVKEYAPIFAGKSRGEIKYQSIEIHEAQVRSDELVQSLN-amide (Ac-SYVKEYAPIFAGKSRGEIKYQSIEIHEAQVRSDELVQSLN-NH2) [scrambled version of Peptide 140, reference compound]", "values": [{"measurement": "blockade of CNS myelin induced neurite outgrowth inhibition (in words)", "setting": "[2]", "result": "ineffective"}, {"measurement": "blockade of Nogo-induced neurite outgrowth inhibition (in words)", "setting": "[3]", "result": "does not result in blockade of outgrowth inhibition"}]}
{"substance": "1-25: 25 amino acid peptide, residues 1-25 of the extracellular domain of Nogo (FRIYKGVIQAIQKSDEGHPFRAYLE) [Peptide 1-25]", "values": [{"measurement": "blockade of Nogo-induced growth cone collapse (in words)", "setting": "[1]", "result": "blocking activity at μM concentrations"}]}
{"substance": "1-31: peptides having residues 1-31 of hNogoA (#1055-1120) (RIYKGVIQAIQKSDEGHPFRAYLESEVAISE; UniProt Q9NQC3 1055-1085, looked up, fragment) [Peptide 1-31]", "values": [{"measurement": "binding to NgR expressing COS-7 cells (in words)", "setting": "mouse NgR", "result": "almost no binding"}]}
